These results are taken from patent publication US20260078398A1, “PLANTS GENETICALLY ENGINEERED FOR INCREASED WATER USE EFFICIENCY AND CARBON INTAKE AND METHODS FOR MAKING AND USING THEM” (The Regents of the University of California, priority 2022, published 2026).

The test system of data set [1] is Brachypodium distachyon. Kind of data set: stomatal conductance after ABA added to the transpiration stream (gas exchange analyzer). In kind it is in vivo. As to conditions: 2 μM ABA. As for the experimental part: We next investigated stomatal closure in response to abscisic acid.
(top infrared thermal image, bottom photo of the same plants). • (B) Stomatal density and (C) stomatal index were determined using leaf imprints created of the 4th true leaf of plants with 3 independent replicates plants per genotype with 4 images per plant. Circles represent counts per each image while diamonds are the average per each plant. Error bars represent SEM while p-values were obtained from two-tailed t-tests comparing mutant to WT. • (D) Stomatal conductance was quantified using a gas exchange analyzer. […] Data shown are the average of n=3±SEM plants per genotype using 1 leaf per experiment and genotype.
FIG. 14 (or FIG. 8 of Example 2): Bdmpk5 CRISPR Alleles Show Strong CO2 insensitivity but functional ABA responses. • (A, B) 5 to 6 week old plants were analyzed in time-resolved stomatal conductance analyses. • (A) CRISPR alleles show strongly impaired stomatal responses to CO2 shifts. […] Data shown are the average of n=3±SEM experiments using one leaf per experiment and genotype. • (C,D) Stomatal density (C) and stomatal index (D) were determined using leaf imprints created of the 4th true leaf with 3 replicate plants and genotype. […]

Data set [2] has as its target T1, GST-CBC1 (recombinant Arabidopsis Raf-like kinase CBC1 with GST tag).
T1 sequence (Q9SSA4 whole entry, looked up): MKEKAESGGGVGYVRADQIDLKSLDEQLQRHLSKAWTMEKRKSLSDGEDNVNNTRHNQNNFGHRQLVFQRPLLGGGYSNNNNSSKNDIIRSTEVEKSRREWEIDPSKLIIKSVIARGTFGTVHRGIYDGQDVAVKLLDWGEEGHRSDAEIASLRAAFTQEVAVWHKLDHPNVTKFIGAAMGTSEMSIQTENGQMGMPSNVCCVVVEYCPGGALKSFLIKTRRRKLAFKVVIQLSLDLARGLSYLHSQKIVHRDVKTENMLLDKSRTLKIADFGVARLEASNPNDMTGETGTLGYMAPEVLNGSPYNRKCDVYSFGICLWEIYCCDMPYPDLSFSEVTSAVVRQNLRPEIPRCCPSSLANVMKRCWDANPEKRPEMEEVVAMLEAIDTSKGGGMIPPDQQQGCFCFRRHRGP

Data set [3] has as its target T2, MPK12 (recombinant Arabidopsis MAP kinase MPK12).
T2 chain: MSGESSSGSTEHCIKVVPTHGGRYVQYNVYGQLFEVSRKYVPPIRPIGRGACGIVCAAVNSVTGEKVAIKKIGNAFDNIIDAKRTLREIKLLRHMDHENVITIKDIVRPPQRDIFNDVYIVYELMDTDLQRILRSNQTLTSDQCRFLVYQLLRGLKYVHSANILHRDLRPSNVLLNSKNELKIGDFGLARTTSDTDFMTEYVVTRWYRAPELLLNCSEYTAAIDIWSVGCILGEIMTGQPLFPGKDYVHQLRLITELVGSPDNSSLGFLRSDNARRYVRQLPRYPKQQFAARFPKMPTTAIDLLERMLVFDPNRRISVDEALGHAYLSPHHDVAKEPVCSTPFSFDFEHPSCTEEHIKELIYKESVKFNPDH

For data set [4], the system named is MPK4/12, HT1 and CBC1 recombinant proteins. Briefly: in vitro phosphorylation assay: NaHCO3-dependent down-regulation of HT1-mediated CBC1 phosphorylation. In kind it is biochemical, Arabidopsis. As to conditions: isoform replaces wild type protein or is added; 20 mM NaHCO3 vs NaCl control, 30 min. The protocol:
We tested whether this HT1-mediated activation of CBC1 is inhibited by CO2/bicarbonate by adding NaHCO3 in in vitro phosphorylation reactions. […]
FIG. 2. […] Histone was used as an artificial protein kinase substrate. • (B) MPK4, HT1 and CBC1 proteins were incubated with NaHCO3 at the indicated concentrations for 30 min, and in vitro phosphorylation assays were performed. • (C) CBC1 band intensities as shown in (B) were measured using IMAGEJ™, n=4 experiments, error bars show ±S.D. • (D) MPK4, HT1 and CBC1 proteins were incubated in reaction buffers adjusted at different pH (6.5 to 8.5) for 30 min, and in vitro phosphorylation assays were performed. • (E) CBC1 band intensities and the density-ratios of ‘+NaHCO3’ to ‘—NaHCO3’ (=+NaCl controls) for each pH condition
FIG. 3. […] Ambient CO2 concentrations are indicated by the top bars. n=7 experiments, error bars show ±SEM. • (C) Recombinant HT1 (wild type, HT1-G89R or HT1-R173Q) and CBC1 proteins were incubated with MPK4 in the presence or absence of 20 mM NaHCO3 or 20 mM NaCl (−controls) for 30 min, and in vitro phosphorylation assays were performed. • (D) Recombinant MPK12, CBC1 and HT1 (WT or R102K) proteins were incubated with or without 20 mM NaHCO3 or 20 mM NaCl (−controls) for 30 min, and in vitro phosphorylation assays were performed. Histone was used as an artificial kinase substrate. • (E) HT1 (WT or A109V) proteins were used for in vitro phosphorylation assays. Proteins were incubated with or without 20 mM NaHCO3 or 20 mM NaCl (−controls) for 30 min. • (F) Stomatal conductances were analyzed using intact plants of Arabidopsis (Col-0 (WT), cbc1 cbc2, ht1-A109V and cbc1 cbc2 ht1-A109V). CO2 concentration changes were applied as indicated on top (p.p.m.). […]

Data set [5] concerns MPK4 and HT1. Briefly: in vitro pull-down assay, His-HT1 with GST-MPK4. Type of data set: binding, Arabidopsis. The conditions noted are these: pull-down with or without 20 mM NaHCO3. The protocol: We therefore investigated a possible binding between MPK4 and HT1 and the effect of HCO3^−.
FIG. 4. […] CO2 concentration changes were applied as indicated on top (p.p.m.). n=6 experiments, error bars show ±SEM. • (J) Model of plant stomatal CO2 sensor and signaling (see text).
FIG. 6. […] Precipitated proteins were washed with buffers supplemented with NaHCO3 at the indicated concentrations (0, 2 or 20 mM). See FIG. 4d for an independent experiment. To control for effects of Na^+, 20 mM NaCl (0 mM NaHCO3) for lanes 1 and 4 were included in the buffers; and 18 mM NaCl (2 mM NaHCO3) for lane 3 were included in buffer.

Data set [6] addresses T3, GST-MPK4 (recombinant Arabidopsis MAP kinase MPK4 with GST tag).
T3 chain: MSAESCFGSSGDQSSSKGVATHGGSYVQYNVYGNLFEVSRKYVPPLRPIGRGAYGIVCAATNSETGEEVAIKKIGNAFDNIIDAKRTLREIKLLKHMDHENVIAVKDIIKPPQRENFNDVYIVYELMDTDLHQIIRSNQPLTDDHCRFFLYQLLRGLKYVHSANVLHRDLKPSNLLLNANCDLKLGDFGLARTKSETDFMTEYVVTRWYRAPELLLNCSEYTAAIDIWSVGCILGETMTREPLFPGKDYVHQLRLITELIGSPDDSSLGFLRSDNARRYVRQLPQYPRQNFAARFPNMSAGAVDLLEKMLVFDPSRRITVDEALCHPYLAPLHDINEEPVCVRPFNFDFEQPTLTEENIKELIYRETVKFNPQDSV

In data set [7] the test system is BdMPK5, HT1 and CBC1. Kind of data set: in vitro phosphorylation assay with GST-CBC1, His-HT1 and His-BdMPK5. As to conditions: with or without 20 mM NaHCO3, n=2. In kind it is biochemical, Brachypodium distachyon. The protocol: Furthermore, this activation of CBC1 is inhibited by elevated CO2/bicarbonate only when HT1, CBC1 and MPK4 or MPK12 are included in the reconstituted reaction (Takahashi et al., 2022). […] The high CO2/bicarbonate response was similar to high CO2 responses found for AtMPK4 and AtMPK12, but not for the close homolog AtMPK11 (Takahashi et al., 2022).
In vitro phosphorylation assays were performed using GST-CBC1, His-HT1 and His-BdMPK5 (WT or D90N) recombinant proteins with or without 20 mM NaHCO3. Phosphorylation levels of CBC1 (top) and Coomassie brilliant blue (CBB)-stained gels (bottom) are shown. • (B) AlphaFold2-predicted complex of BdMPK5 with HT1. BdMPK5 is shown in red, while HT1 is shown in blue. The BdMPK5-D90 residue, which is mutant in chill1, is colored green, and is predicted, based on the wildtype BdMPK5-HT1 simulation, to lie at the interface of BdMPK5 and HT1.

Residue numbers refer to the chain shown, from its start. Names and notes keep the numbering of the source.

Turning to `CC1=CC(=O)CC(C)(C)[C@@]1(O)/C=C/C(C)=C\C(=O)O` [ABA, abscisic acid], the “stomatal conductance response to ABA” value in data set [1] (T3 BdMPK5 CRISPR lines) is listed as “steep decline in conductance”; in data set [1] (chill1 leaves, 5-week old) it was “responded similarly to WT”.

B1: His-HT1 (recombinant Arabidopsis HT1 protein kinase, wild type, with His tag) (protein)
chain: MSGLCFNPFRLRWSLRSKLPLEPSLPNLPCNPSSSKTNRYAEAETMEKKRFDSMESWSMILESENVETWEASKGEREEWTADLSQLFIGNKFASGAHSRIYRGIYKQRAVAVKMVRIPTHKEETRAKLEQQFKSEVALLSRLFHPNIVQFIAACKKPPVYCIITEYMSQGNLRMYLNKKEPYSLSIETVLRLALDISRGMEYLHSQGVIHRDLKSNNLLLNDEMRVKVADFGTSCLETQCREAKGNMGTYRWMAPEMIKEKPYTRKVDVYSFGIVLWELTTALLPFQGMTPVQAAFAVAEKNERPPLPASCQPALAHLIKRCWSENPSKRPDFSNIVAVLEKYDECVKEGLPLTSHASLTKTKKAILDHLKGCVTSISSPFSSSSVPVNA
With B1, the “CBC1 phosphorylation, in vitro phosphorylation assay with radioactive 32P-ATP (FIG. 5)” value in data set [2] is “We confirmed CBC1 phosphorylation by HT1 using recombinant His-HT1 and GST-CBC1 proteins”.

B2: HT1-R102K (protein)
chain: B1 chain with R102K
On to B2, for which, in data set [3], the “NaHCO3-triggered down-regulation of CBC1 phosphorylation and CBC1 activity, in vitro phosphorylation assay with MPK12 and CBC1 (FIG. 3D, n=3)” value was “both of these R102K and A109V mutations disrupt the NaHCO3-triggered down-regulation of CBC1 phosphorylation and CBC1 activity”. Moreover, in data set [4], the “NaHCO3-mediated down-regulation of CBC1 phosphorylation/activity with the protein isoform in the reaction” value was “disrupt the NaHCO3-triggered down-regulation of CBC1 phosphorylation and CBC1 activity”. The “HCO3- dependent binding of HT1 isoform with MPK4” value in data set [5] was “did not show a bicarbonate-induced interaction of HT1 with MPK4”.

B3: HT1-R173Q (protein)
chain: B1 chain with R173Q
B3: the “NaHCO3-dependent CBC1 downregulation, in vitro phosphorylation assay with MPK4 and CBC1 (FIG. 3C)” value in data set [6] is “the R173Q mutation partly impaired the NaHCO3-dependent CBC1 downregulation”. Moreover, the “NaHCO3-mediated down-regulation of CBC1 phosphorylation/activity with the protein isoform in the reaction” value in data set [4] is listed as “partly impaired the NaHCO3-dependent CBC1 downregulation”. Besides, the “HCO3- dependent binding of HT1 isoform with MPK4” value in data set [5] is given as “partially interact with MPK4”.

B4: BdMPK5: recombinant Brachypodium distachyon MAP kinase BdMPK5, SEQ ID NO: 13 (protein)
chain: MRMEGGGAGPAAAAAAGGAHGLGEAQIKGTLTHGGRYVQYNVYGNLFEVSAKYVPPIRPVGRGACGIICAAINVQTREEVAIKKIGNAFDNQIDAKRTLREVKLLRHMNHENVISIKDIIRPPRRENFNDVYIVYELMDTDLHHLLRSNQPLTDDHCQYFLYQVLRGLKYVHSANVLHRDLRPSNLLLNAKCDLKIGDFGLARTTTETDFMMEYVVTRWYRAPELLLNCSEYTGAIDMWSVGCILGEIATREPLFPGKDYVHQLRLITELLGSPDDTSLGFLRSDNARRYVRSLPQYPKQQFRSRFPNMSSGAMDLLERMLVFDPNKRITVDEALCHPYLASLHEINDEPVCPAPFSFDFEQPSFTEEDIKELIWRESVKFNPEPIH
modifications: Synthetic: Bd21-3 (WT) BdMPK5
With B4, the “high CO2/bicarbonate-mediated down-regulation of CBC1 phosphorylation with BdMPK5 protein” value in data set [7] is on record as “high CO2/bicarbonate-induced down-regulation of the CBC1 protein kinase activity”.

B5: BdMPK5-D90N: chill1 variant of BdMPK5 protein, SEQ ID NO: 14 (protein)
chain: B4 chain with D90N
modifications: Synthetic: Chill1 BdMPK5
B5: in data set [7], the “high CO2/bicarbonate-mediated down-regulation of CBC1 phosphorylation with BdMPK5 protein” value is recorded as “abrogated the high CO2/bicarbonate-mediated downregulation of CBC1 phosphorylation”.
